Tests used:
[1] = target: vasopressin-1 receptor of rat liver cell membranes (rat) (UniProt P30560); experiment: competition with 3H-vasopressin-1 antagonist on rat liver membranes, metallopeptide at 1 µM
[2] = target: oxytocin receptor of rat uterus cell membranes (rat) (UniProt P70536); experiment: competition with 3H-oxytocin on rat uterus membranes, metallopeptide at 1 µM
[3] = target: uPA receptor (urokinase-type plasminogen activator receptor) on U937 cells (UniProt Q03405); experiment: competition receptor-binding assay on U937 cells, ATF as competing ligand, metallopeptide at 1 µM
uPA receptor (urokinase-type plasminogen activator receptor) on U937 cells, sequence (Q03405 23-305): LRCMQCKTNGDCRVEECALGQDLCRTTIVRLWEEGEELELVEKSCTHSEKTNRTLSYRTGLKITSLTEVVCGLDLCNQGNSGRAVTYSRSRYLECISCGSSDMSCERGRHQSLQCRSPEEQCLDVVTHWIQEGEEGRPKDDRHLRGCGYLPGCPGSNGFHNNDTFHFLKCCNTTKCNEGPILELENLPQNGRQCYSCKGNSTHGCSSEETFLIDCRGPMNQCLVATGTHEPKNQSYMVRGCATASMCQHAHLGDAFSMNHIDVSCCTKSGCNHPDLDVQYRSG

[4] = target: angiotensin-II receptor of human neuroblastoma cells (KAN-TS) (human); experiment: competition with 125I-Tyr4,Sar1,Ile8-angiotensin II on KAN-TS human neuroblastoma cell membranes, metallopeptide at 1 µM
angiotensin-II receptor of human neuroblastoma cells (KAN-TS) (human), sequence (P30556 whole entry): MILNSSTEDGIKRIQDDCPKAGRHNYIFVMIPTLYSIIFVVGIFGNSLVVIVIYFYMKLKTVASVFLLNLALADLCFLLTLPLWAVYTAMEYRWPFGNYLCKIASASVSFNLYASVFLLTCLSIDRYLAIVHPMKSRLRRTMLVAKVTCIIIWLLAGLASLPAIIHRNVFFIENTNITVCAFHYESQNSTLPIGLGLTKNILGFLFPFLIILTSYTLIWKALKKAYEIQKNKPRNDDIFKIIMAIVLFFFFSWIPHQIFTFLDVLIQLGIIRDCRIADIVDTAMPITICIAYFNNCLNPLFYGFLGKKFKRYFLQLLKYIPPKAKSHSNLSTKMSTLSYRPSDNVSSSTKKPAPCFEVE

oxytocin receptor of rat uterus cell membranes (rat), sequence (P70536 whole entry): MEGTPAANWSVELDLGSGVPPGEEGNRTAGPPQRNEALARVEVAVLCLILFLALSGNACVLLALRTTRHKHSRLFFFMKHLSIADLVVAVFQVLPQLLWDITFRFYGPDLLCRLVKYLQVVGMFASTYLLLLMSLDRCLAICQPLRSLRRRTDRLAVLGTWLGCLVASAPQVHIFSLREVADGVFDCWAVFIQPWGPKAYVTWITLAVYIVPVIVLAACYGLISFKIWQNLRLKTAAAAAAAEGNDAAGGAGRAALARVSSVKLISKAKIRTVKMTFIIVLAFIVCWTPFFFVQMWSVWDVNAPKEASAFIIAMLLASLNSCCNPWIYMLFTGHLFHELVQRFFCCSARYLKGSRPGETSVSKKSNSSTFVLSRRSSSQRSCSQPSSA
vasopressin-1 receptor of rat liver cell membranes (rat), sequence (P30560 whole entry): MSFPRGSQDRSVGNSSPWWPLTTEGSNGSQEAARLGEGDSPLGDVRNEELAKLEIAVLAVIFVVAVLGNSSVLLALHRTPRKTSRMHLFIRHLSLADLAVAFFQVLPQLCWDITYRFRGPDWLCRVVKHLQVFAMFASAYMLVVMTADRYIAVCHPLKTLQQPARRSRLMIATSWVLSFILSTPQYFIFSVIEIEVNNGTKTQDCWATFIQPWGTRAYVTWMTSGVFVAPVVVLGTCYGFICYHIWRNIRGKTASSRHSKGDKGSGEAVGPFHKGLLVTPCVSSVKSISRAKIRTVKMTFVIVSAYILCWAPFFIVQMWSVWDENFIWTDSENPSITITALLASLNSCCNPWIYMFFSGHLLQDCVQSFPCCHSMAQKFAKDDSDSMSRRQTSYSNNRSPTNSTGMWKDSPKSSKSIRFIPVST

Substance | % Inhibition at 1 µM [1] [%] | % Inhibition at 1 µM [2] [%] | % Inhibition at 1 µM [3] [%] | further results
Re-complexed Ala-Tyr-Ile-Gln-Asn-Cys-Ala-Pro-Leu-Gly-NH2 (SEQ ID NO:155) (peptide) | 0 | 42 | – | –
Re-complexed Ala-Tyr-Ile-Gln-Asn-Ala-Cys-Pro-Leu-Gly-NH2 (SEQ ID NO:153) (peptide) | 0 | 2 | – | –
Re-complexed Ala-Tyr-Ile-Gln-Cys-Asn-Ala-Pro-Leu-Gly-NH2 (SEQ ID NO:156) (peptide) | 0 | 18 | – | –
Re-complexed Ac-Val-Ser-Asn-Lys-Tyr-Phe-Ser-Asn-Ile-Cys-His-Trp-NH2 (SEQ ID NO:11) (peptide) | – | – | 0 | –
Re-complexed Ac-Val-Ser-Asn-Lys-Tyr-Cys-Phe-Ser-Asn-Ile-His-Trp-NH2 (SEQ ID NO:7) (peptide) | – | – | 18 | –
Re-complexed Ala-Tyr-Ile-Gln-Asn-Ala-Cys-Ala-Leu-Gly-NH2 (SEQ ID NO:154) (peptide) | 0 | 31 | – | –
Re-complexed Ac-Val-Ser-Asn-Lys-Tyr-Phe-Ser-Asn-Cys-Ile-His-Trp-NH2 (SEQ ID NO:10) (peptide) | – | – | 32 | –
Re-complexed Sar-Arg-Val-Tyr-Ile-Cys-His-Pro-Thr (SEQ ID NO:162) (peptide) | – | – | – | % Inhibition at 1 µM [4]: 20%
Re-complexed Ala-Tyr-Ile-Gln-Asn-Ala-Ala-Leu-Cys-Gly-NH2 (SEQ ID NO:151) (peptide) | 0 | 0 | – | –
Re-complexed Ala-Tyr-Ile-Gln-Asn-Ala-Ala-Leu-Gly-Cys-NH2 (SEQ ID NO:150) (peptide) | 0 | 0 | – | –
Re-complexed Ala-Tyr-Ile-Cys-Gln-Asn-Ala-Pro-Leu-Gly-NH2 (SEQ ID NO:157) (peptide) | 0 | 0 | – | –
Re-complexed Ac-Val-Ser-Asn-Lys-Tyr-Phe-Cys-Ser-Asn-Ile-His-Trp-NH2 (SEQ ID NO:8) (peptide) | – | – | 0 | –
Re-complexed Ac-Val-Ser-Asn-Lys-Tyr-Phe-Ser-Asn-Ile-His-Cys-Trp-NH2 (SEQ ID NO:3) (peptide) | – | – | 106 | –
Re-complexed Ala-Tyr-Ile-Gln-Asn-Ala-Ala-Cys-Leu-Gly-NH2 (SEQ ID NO:152) (peptide) | 1 | 0 | – | –
Re-complexed Sar-Arg-Cys-Val-Tyr-Ile-His-Pro-Thr (SEQ ID NO:165) (peptide) | – | – | – | % Inhibition at 1 µM [4]: 1%
Re-complexed Ac-Val-Ser-Asn-Lys-Tyr-Phe-Ser-Asn-Ile-His-Trp-Cys-NH2 (SEQ ID NO:12) (peptide) | – | – | 0 | –
Re-complexed Ac-Val-Ser-Cys-Asn-Lys-Tyr-Phe-Ser-Asn-Ile-His-Trp-NH2 (SEQ ID NO:4) (peptide) | – | – | 0 | –
Re-complexed Ac-Val-Ser-Asn-Lys-Cys-Tyr-Phe-Ser-Asn-Ile-His-Trp-NH2 (SEQ ID NO:6) (peptide) | – | – | 13 | –
Re-complexed Ala-Tyr-Ile-Gln-Asn-Ala-Pro-Leu-Gly-Cys-NH2 (SEQ ID NO:149) (peptide) | 0 | 6 | – | –
Re-complexed Ala-Tyr-Cys-Ile-Gln-Asn-Ala-Pro-Leu-Gly-NH2 (SEQ ID NO:158) (peptide) | 1 | 6 | – | –
Re-complexed Sar-Arg-Val-Tyr-Cys-Ile-His-Pro-Thr (SEQ ID NO:163) (peptide) | – | – | – | % Inhibition at 1 µM [4]: 12%
Re-complexed Sar-Arg-Val-Tyr-Ile-His-Cys-Gly-Thr (SEQ ID NO:166) (peptide) | – | – | – | % Inhibition at 1 µM [4]: 11%
Re-complexed Sar-Arg-Val-Tyr-Ile-His-Gly-Cys-Thr (SEQ ID NO:160) (peptide) | – | – | – | % Inhibition at 1 µM [4]: 5%
Re-complexed Ac-Val-Ser-Asn-Cys-Lys-Tyr-Phe-Ser-Asn-Ile-His-Trp-NH2 (SEQ ID NO:5) (peptide) | – | – | 0 | –
Re-complexed Sar-Arg-Val-Cys-Tyr-Ile-His-Pro-Thr (SEQ ID NO:164) (peptide) | – | – | – | % Inhibition at 1 µM [4]: 1%
Re-complexed Sar-Arg-Val-Tyr-Ile-His-Cys-Pro-Thr (SEQ ID NO:161) (peptide) | – | – | – | % Inhibition at 1 µM [4]: 60%
Re-complexed Ac-Val-Ser-Asn-Lys-Tyr-Phe-Ser-Cys-Asn-Ile-His-Trp-NH2 (SEQ ID NO:9) (peptide) | – | – | 35 | –
